According to patent US20260274968A1:

How the values were obtained:
[1] = biological target: human recombinant IL-18-BP (human) (UniProt O95998); test: cell-based or functional assay
[2] = biological target: human recombinant IL-18-BP (human) (UniProt O95998)
[3] = biological target: human IL-18 receptor complex (IL-18Rα/β) (human) (UniProt Q13478)
human IL-18 receptor complex (IL-18Rα/β) (human), sequence (Q13478 19-541, chain 1 of 2): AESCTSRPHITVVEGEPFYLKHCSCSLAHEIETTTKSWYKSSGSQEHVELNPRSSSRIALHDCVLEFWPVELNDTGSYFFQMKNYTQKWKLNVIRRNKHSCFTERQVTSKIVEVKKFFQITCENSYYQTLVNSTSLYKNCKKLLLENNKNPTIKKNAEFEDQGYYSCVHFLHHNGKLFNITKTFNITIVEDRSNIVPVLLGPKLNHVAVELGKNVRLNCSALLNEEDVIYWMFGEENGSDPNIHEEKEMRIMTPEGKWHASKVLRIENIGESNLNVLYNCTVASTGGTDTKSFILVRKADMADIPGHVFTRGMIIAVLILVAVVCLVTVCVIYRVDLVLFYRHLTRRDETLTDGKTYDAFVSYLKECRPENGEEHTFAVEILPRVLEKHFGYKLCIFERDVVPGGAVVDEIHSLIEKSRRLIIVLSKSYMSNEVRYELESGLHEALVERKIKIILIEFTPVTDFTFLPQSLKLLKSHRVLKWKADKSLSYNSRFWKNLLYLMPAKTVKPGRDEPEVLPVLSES
human IL-18 receptor complex (IL-18Rα/β) (human), sequence (O95256 20-599, chain 2 of 2, further chain): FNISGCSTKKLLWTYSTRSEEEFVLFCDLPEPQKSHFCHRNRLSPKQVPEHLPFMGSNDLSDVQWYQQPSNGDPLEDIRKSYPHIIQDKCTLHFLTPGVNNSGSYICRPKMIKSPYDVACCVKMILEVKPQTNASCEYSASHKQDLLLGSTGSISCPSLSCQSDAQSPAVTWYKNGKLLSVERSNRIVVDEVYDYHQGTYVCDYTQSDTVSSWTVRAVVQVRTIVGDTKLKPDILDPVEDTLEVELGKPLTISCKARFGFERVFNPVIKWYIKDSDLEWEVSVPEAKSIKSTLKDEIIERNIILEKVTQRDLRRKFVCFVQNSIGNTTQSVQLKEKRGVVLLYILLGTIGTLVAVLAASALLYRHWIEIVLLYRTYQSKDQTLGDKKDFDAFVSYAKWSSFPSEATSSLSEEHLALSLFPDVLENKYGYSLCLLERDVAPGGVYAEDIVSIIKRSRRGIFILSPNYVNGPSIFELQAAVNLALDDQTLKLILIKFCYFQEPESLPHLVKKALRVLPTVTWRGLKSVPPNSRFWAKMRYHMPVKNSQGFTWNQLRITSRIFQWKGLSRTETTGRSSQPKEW

recombinant human mature IL-18, sequence (Q14116 37-193): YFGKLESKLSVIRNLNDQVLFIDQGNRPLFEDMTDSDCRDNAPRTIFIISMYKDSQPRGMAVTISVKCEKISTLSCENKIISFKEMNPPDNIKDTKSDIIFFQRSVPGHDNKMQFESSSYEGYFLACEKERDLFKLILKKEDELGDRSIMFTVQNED
human recombinant IL-18-BP (human), sequence (O95998 31-194 limits assumed): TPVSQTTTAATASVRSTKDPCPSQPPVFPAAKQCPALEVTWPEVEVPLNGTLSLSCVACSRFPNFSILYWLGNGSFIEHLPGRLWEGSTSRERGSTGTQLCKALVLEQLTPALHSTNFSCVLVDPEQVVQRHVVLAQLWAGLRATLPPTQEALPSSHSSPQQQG

## recombinant human mature IL-18 (from UniProt Q14116 37-193) (ligand)
[1]
  EC50-SEAP (HEK Blue IL-18), fold attenuation by 1.25 µg/ml hrIL-18-BP: > 1000 fold
[2]
  EC50-SEAP, HEK-Blue IL-18 reporter cells, rhIL-18 titrated in medium with 1.25 µg/ml rhIL-18BP (row 'Human rIL-18 + BP'): > 1 ng/mL
[3]
  EC50-SEAP, HEK-Blue IL-18 reporter cells, rhIL-18 titrated in medium alone (row 'Human rIL-18'): 0.0317 ng/mL
